Laboratory results published in patent US20240368263A1 (PROMETHEUS BIOSCIENCES, published 2024).

T1: human TL1A (Fitzgerald, Prod. #30R-AT070) (human, UniProt O95150 72-251, limits assumed, biotinylated with EZ-Link Sulfo-NHS-LC-Biotin where used as soluble antigen)
T1 construct: also called TNFSF15; biotinylated human TL1A
T1 sequence (looked up): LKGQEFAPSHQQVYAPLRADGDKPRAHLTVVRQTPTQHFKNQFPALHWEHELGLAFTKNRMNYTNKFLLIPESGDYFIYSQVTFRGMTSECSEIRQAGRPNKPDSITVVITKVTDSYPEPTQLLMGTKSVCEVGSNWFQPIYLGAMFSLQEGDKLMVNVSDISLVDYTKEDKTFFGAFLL

T2: Fas/TNFSF6 (R&D Systems, cat. no. 126-FL/CF) (UniProt P48023 134-281)
T2 sequence (looked up): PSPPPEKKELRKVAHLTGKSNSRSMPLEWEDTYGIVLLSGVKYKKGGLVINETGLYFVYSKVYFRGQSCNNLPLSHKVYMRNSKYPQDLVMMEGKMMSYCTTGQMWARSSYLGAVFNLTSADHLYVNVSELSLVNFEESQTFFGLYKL


Key:
[1] = target: T1, human TL1A (Fitzgerald, Prod. …); assay: capture lift screen and Fab ELISA on coated TL1A
[2] = target: TRAIL/TNFSF10 (R&D Systems, cat. no. 375-TL/CF) (UniProt P50591 114-281); assay: ELISA, antigen coated at 1 µg/ml, Fab titrated
Procedure: (§1) Next, all the Fab variants were characterized for their selectivity for human TL1A relative to other TNFSF members TRAIL, LIGHT and Fas. […] The plate was washed 3 times with PBS-T and blocked with 100 μl of 1% BSA/PBS. The block was discarded and the Fab variants or control antibodies (Fas/TNFSF6, R&D Systems, cat. no. AF126; TRAIL/TNFSF10, R&D Systems, cat. no. AF375; LIGHT/TNFSF14, R&D Systems, cat. no. AF664) were titrated in 50 μl 1% BSA/PBS and incubated for 1 h at 25° C. The plate was washed 3 times with PBS-T and secondary HRP-conjugated antibody (diluted 5,000-fold in 1% BSA/PBS) was added for 1 h at 25° C. The plate was washed 3 times with PBS-T and developed.

[3] = target: LIGHT/TNFSF14 (R&D Systems, cat. no. 664-LI/CF) (UniProt O43557 74-240); assay: ELISA, antigen coated at 1 µg/ml, Fab titrated
Procedure: as §1

[4] = target: T2, Fas/TNFSF6 (R&D Systems, cat. no. …); assay: ELISA, antigen coated at 1 µg/ml, Fab titrated
Procedure: as §1

Sequence of TRAIL/TNFSF10 (R&D Systems, cat. no. 375-TL/CF) (P50591 114-281 limits assumed): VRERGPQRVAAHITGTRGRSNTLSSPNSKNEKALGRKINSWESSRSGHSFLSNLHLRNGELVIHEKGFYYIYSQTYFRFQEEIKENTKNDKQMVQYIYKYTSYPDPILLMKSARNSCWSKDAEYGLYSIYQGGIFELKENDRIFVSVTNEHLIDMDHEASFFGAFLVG
Sequence of LIGHT/TNFSF14 (R&D Systems, cat. no. 664-LI/CF) (O43557 74-240 limits assumed): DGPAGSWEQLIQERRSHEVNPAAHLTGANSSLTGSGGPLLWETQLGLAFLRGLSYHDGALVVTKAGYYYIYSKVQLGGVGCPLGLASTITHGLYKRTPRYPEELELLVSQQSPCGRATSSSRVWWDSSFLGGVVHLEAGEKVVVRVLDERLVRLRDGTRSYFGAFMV

Binder	binding result [1]	binding result [2]	binding result [3]	binding result [4]
18-7 (CDR-grafted LC) Fab (Fab, V domains shown, Fab; also called clone 18-7) VH: QVQLVQSGAEVKKPGASVKLSCKASGFDIQDTYMHWVRQAPGQGLEWMGRIDPASGHTKYDPKFQVRVTMTRDTSTSTVYMELSSLRSEDTAVYYCSRSGGLPDVWGQGTTVTVSS VL: EIVLTQSPGTLSLSPGERATLSCRASSSVSYMYWYQQKPGQAPRLLIYATSNLASGIPDRFSGSGSGTDFTLTISRLEPEDFAVYYCQQWSGNPRTFGGGTKLEIK	binds			
21-3 (CDR-grafted HC) Fab (Fab, V domains shown, Fab; also called clone 21-3) VH: QVQLVQSGAEVKKPGASVKVSCKASGFDIQDTYMHWVRQAPGQGLEWMGRIDPASGHTKYDPKFQVRVTMTRDTSTSTVYMELSSLRSEDTAVYYCARSGGLPDVWGQGTTVTVSS VL: EIVLTQSPGTLSLSPGERATLSCRASSSVSYMYWYQQKPGQAPRLLIYATSNLASGVPDRFSGSGSGTDYTLTISRLEPEDFAVYYCQQWSGNPRTFGGGTKLEIK	binds			
12835 (humanized 5C3D11) Fab (Fab, V domains shown, Fab) VH: QVQLVQSGAEVKKPGASVKLSCKASGFDIQDTYMHWVRQAPGQGLEWMGRIDPASGHTKYDPKFQVRVTMTTDTSTSTVYMELSSLRSEDTAVYYCSRSGGLPDVWGQGTTVTVSS VL: EIVLTQSPGTLSLSPGERVTMSCRASSSVSYMYWYQQKPGQAPRPWIYATSNLASGVPDRFSGSGSGTDYTLTISRLEPEDFAVYYCQQWSGNPRTFGGGTKLEIK	binds			
clone 1-3 Fab (12835 framework variant) (Fab, V domains shown, Fab) VH: QVQLVQSGAEVKKPGASVKLSCKASGFDIQDTYMHWVRQAPGQGLEWMGRIDPASGHTKYDPKFQVRVTMTTDTSTSTVYMELSSLRSEDTAVYYCSRSGGLPDVWGQGTTVTVSS VL: EIVLTQSPGTLSLSPGERVTMSCRASSSVSYMYWYQQKPGQAPRPWIYATSNLASGIPDRFSGSGSGTDYTLTISRLEPEDFAVYYCQQWSGNPRTFGGGTKLEIK	binds			
clone 1-4 Fab (12835 framework variant) (Fab, V domains shown, Fab) VH: QVQLVQSGAEVKKPGASVKLSCKASGFDIQDTYMHWVRQAPGQGLEWMGRIDPASGHTKYDPKFQVRVTMTTDTSTSTVYMELSSLRSEDTAVYYCSRSGGLPDVWGQGTTVTVSS VL: EIVLTQSPGTLSLSPGERVTMSCRASSSVSYMYWYQQKPGQAPRLWIYATSNLASGIPDRFSGSGSGTDYTLTISRLEPEDFAVYYCQQWSGNPRTFGGGTKLEIK	binds			
clone 2-3 Fab (12835 framework variant) (Fab, V domains shown, Fab) VH: QVQLVQSGAEVKKPGASVKLSCKASGFDIQDTYMHWVRQAPGQGLEWMGRIDPASGHTKYDPKFQVRVTMTTDTSTSTVYMELSSLRSEDTAVYYCSRSGGLPDVWGQGTTVTVSS VL: EIVLTQSPGTLSLSPGERATLSCRASSSVSYMYWYQQKPGQAPRPWIYATSNLASGIPDRFSGSGSGTDYTLTISRLEPEDFAVYYCQQWSGNPRTFGGGTKLEIK	binds			
clone 3-4 Fab (12835 framework variant) (Fab, V domains shown, Fab) VH: QVQLVQSGAEVKKPGASVKLSCKASGFDIQDTYMHWVRQAPGQGLEWMGRIDPASGHTKYDPKFQVRVTMTTDTSTSTVYMELSSLRSEDTAVYYCSRSGGLPDVWGQGTTVTVSS VL: EIVLTQSPGTLSLSPGERATLSCRASSSVSYMYWYQQKPGQAPRPWIYATSNLASGVPDRFSGSGSGTDFTLTISRLEPEDFAVYYCQQWSGNPRTFGGGTKLEIK	binds			
Clone 2 Fab (Fab, V domains shown, Fab) VH: QVQLVQSGAEVKKPGASVKVSCKASGFDIQDTYMHWVRQAPGQGLEWMGRIEPASGHIKYSPKFQGRVTMTRDTSTSTVYMELSSLRSEDTAVYYCARSGGLPDWWGQGTTVTVSS VL: EIVLTQSPGTLSLSPGERATLSCRASSSVSYMYWYQQKPGQAPRLLIYATSNLASGIPDRFSGSGSGTDFTLTISRLEPEDFAVYYCQQWEGNPRTFGGGTKLEIK		no binding	no binding	no binding
Clone 14 Fab (Fab, V domains shown, Fab; also called variant 14) VH: QVQLVQSGAEVKKPGASVKVSCKASGFDIQDTYMHWVRQAPGQGLEWMGRIDPASGHIKYDPKFQKRVTMTRDTSTSTVYMELSSLRSEDTAVYYCARSGGLPDMWGQGTTVTVSS VL: EIVLTQSPGTLSLSPGERATLSCRASSSVSYMYWYQQKPGQAPRLLIYATSNLASGIPDRFSGSGSGTDFTLTISRLEPEDFAVYYCQQWQGNPRTFGGGTKLEIK		no binding	no binding	no binding
Clone 17L Fab (Fab, V domains shown, Fab) VH: QVQLVQSGAEVKKPGASVKVSCKASGFDIQDTYMHWVRQAPGQGLEWMGRIDPASGHLKYDPKFQVRVTMTRDTSTSTVYMELSSLRSEDTAVYYCARSGGLPDMWGQGTTVTVSS VL: EIVLTQSPGTLSLSPGERATLSCRASSSVSYMYWYQQKPGQAPRLLIYATSNLASGIPDRFSGSGSGTDFTLTISRLEPEDFAVYYCQQWQGNPRTFGGGTKLEIK		no binding	no binding	no binding
Clone 23 Fab (Fab, V domains shown, Fab; also called variant 23) VH: QVQLVQSGAEVKKPGASVKVSCKASGFDIQDTYMHWVRQAPGQGLEWMGRIDPASGHLKYDPKFQNRVTMTRDTSTSTVYMELSSLRSEDTAVYYCARSGGLPDKWGQGTTVTVSS VL: EIVLTQSPGTLSLSPGERATLSCRASSSVSYMYWYQQKPGQAPRLLIYATSNLASGIPDRFSGSGSGTDFTLTISRLEPEDFAVYYCQQWEGNPRTFGGGTKLEIK		no binding	no binding	no binding
Clone 34 Fab (Fab, V domains shown, Fab; also called variant 34) VH: QVQLVQSGAEVKKPGASVKVSCKASGFDIQDTYMHWVRQAPGQGLEWMGRIEPASGHIKYDPKFQGRVTMTRDTSTSTVYMELSSLRSEDTAVYYCARSGGLPDWWGQGTTVTVSS VL: EIVLTQSPGTLSLSPGERATLSCRASSSVSYMYWYQQKPGQAPRLLIYATSNLASGIPDRFSGSGSGTDFTLTISRLEPEDFAVYYCQQWEGNPRTFGGGTKLEIK		no binding	no binding	no binding
Clone 46 Fab (Fab, V domains shown, Fab) VH: QVQLVQSGAEVKKPGASVKVSCKASGFDIQDTYMHWVRQAPGQGLEWMGRIEPASGHVKYSPKFQVRVTMTRDTSTSTVYMELSSLRSEDTAVYYCARSGGLPDWWGQGTTVTVSS VL: EIVLTQSPGTLSLSPGERATLSCRASSSVSYMYWYQQKPGQAPRLLIYATSNLASGIPDRFSGSGSGTDFTLTISRLEPEDFAVYYCQQWEGNPRTFGGGTKLEIK		no binding	no binding	no binding
Clone 47 Fab (Fab, V domains shown, Fab; also called variant 47) VH: QVQLVQSGAEVKKPGASVKVSCKASGFDIQDTYMHWVRQAPGQGLEWMGRIEPASGHVKYDPKFQTRVTMTRDTSTSTVYMELSSLRSEDTAVYYCARSGGLPDWWGQGTTVTVSS VL: EIVLTQSPGTLSLSPGERATLSCRASSSVSYMYWYQQKPGQAPRLLIYATSNLASGIPDRFSGSGSGTDFTLTISRLEPEDFAVYYCQQWEGNPRTFGGGTKLEIK		no binding	no binding	no binding
Clone 52 Fab (Fab, V domains shown, Fab) VH: QVQLVQSGAEVKKPGASVKVSCKASGFDIQDTYMHWVRQAPGQGLEWMGRIEPASGHIKYSPKFQGRVTMTRDTSTSTVYMELSSLRSEDTAVYYCARSGGLPDWWGQGTTVTVSS VL: EIVLTQSPGTLSLSPGERATLSCGASSSVSYMYWYQQKPGQAPRLLIYATSNLASGIPDRFSGSGSGTDFTLTISRLEPEDFAVYYCQQWEGNPRTFGGGTKLEIK		no binding	no binding	no binding
Clone 53 Fab (Fab, V domains shown, Fab; also called variant 53) VH: QVQLVQSGAEVKKPGASVKVSCKASGFDIQDTYMHWVRQAPGQGLEWMGRIEPASGHLKYDPKFQERVTMTRDTSTSTVYMELSSLRSEDTAVYYCARSGGLPDKWGQGTTVTVSS VL: EIVLTQSPGTLSLSPGERATLSCRASSSVSYMYWYQQKPGQAPRLLIYATSNLASGIPDRFSGSGSGTDFTLTISRLEPEDFAVYYCQQWEGNPRTFGGGTKLEIK		no binding	no binding	no binding
Clone X Fab (Fab, V domains shown, Fab) VH: QVQLVQSGAEVKKPGASVKVSCKASGFDIQDTYMHWVRQAPGQGLEWMGRIDPASGHTKYDPKFQGRATITTDTSASTAYLQLSSLRSEDTAVYYCARSGGLPDFWGQGTTVTVSS VL: EIVLTQSPGTLSLSPGERATLSCRASSSVSYMYWYQQKPGQAPRLLIYATSNLASGIPDRFSGSGSGTDFTLTISRLEPEDFAVYYCQQWSGNPRTFGGGTKLEIK		no binding	no binding	no binding
